Assay results from JP2007300927A (dated 2007).

B1: GC179 (antibody, V domains shown)
VH: EVQLVETGGGLVQPEGSLKLSCAASGFSFNINAMNWVRQAPGKGLEWVARIRSESNNYATYYGDSVKDRFTISRDDSQNMLYLQMNNLKTEDTAIYYCVREVTTSFAYWGQGTLVTVSA
VL: DIVMTQSAPSVPVTPGESVSISCKSSKSLLHSNGNTYLNWFLQRPGQSPQLLIYWMSNLASGVPDRFSGSGSGTAFTLRISRVEAEDVGVYYCMQHIEYPFTFGTGTKLEIK
notes: Mouse hybridoma antibody from GC-3 immunisation
B2: M11F1 (antibody, V domains shown)
VH: QVTLKESGPGILQPSQTLSLTCSFSGFSLSIYGMGVGWIRQPSGKGLEWLANIWWNDDKYYNSALKSRLTISKDTSNNQVFLKISSVDTADTATYYCAQIGYFYFDYWGQGTTLTVSS
VL: DVVMTQTPLSLPVSLGDQASISCRSSQSLVHSNGNTYLHWYLQKPGQSPKLLIYKVSNRFSGVPDRFSGSGSGTDFTLKISRVEAEDLGVYFCSQSTHVPWTFGGGTKLEIK
notes: Mouse hybridoma antibody
B3: GC33マウス−ヒトキメラ抗体 (antibody, V domains shown)
VH: QVQLQQSGAELVRPGASVKLSCKASGYTFTDYEMHWVKQTPVHGLKWIGALDPKTGDTAYSQKFKGKATLTADKSSSTAYMELRSLTSEDSAVYYCTRFYSYTYWGQGTLVTVSA
VL: DVVMTQTPLSLPVSLGDQASISCRSSQSLVHSNGNTYLHWYLQKPGQSPKLLIYKVSNRFSGVPDRFSGSGSGTDFTLKISRVEAEDLGVYFCSQNTHVPPTFGSGTKLEIK
notes: Mouse GC33 variable regions on human IgG1 and human κ constant regions (vectors HEFgγ1, HEFgκ); also called キメラGC33抗体; マウスGC33可変領域の抗体(mouse / mouse)
B4: GC33 (antibody, V domains shown)
VH: QVQLQQSGAELVRPGASVKLSCKASGYTFTDYEMHWVKQTPVHGLKWIGALDPKTGDTAYSQKFKGKATLTADKSSSTAYMELRSLTSEDSAVYYCTRFYSYTYWGQGTLVTVSA
VL: DVVMTQTPLSLPVSLGDQASISCRSSQSLVHSNGNTYLHWYLQKPGQSPKLLIYKVSNRFSGVPDRFSGSGSGTDFTLKISRVEAEDLGVYFCSQNTHVPPTFGSGTKLEIK
notes: also called GC33抗体
B5: M10D2 (antibody, V domains shown)
VH: QVQLQQPGAELVKPGASVKLSCKASGYTFTSYWMHWVKQRPGQGLEWIGEIDPSDSYTYYNQKFRGKATLTVDKSSNTAYMQLSSLTSEDSAVYYCSRSNLGDGHYRFPAFPYWGQGTLVTVSA
VL: DIVLTQSPATLSVTPGDRVSLSCRASHSISNFLHWYPQKSHESPRLLIKYASQSISGIPSRFSGNGSGTDFTLSINSVETEDFGMYFCQQSNIWSLTFGAGTKLELK
notes: Mouse hybridoma antibody
B6: M5B9 (antibody, V domains shown)
VH: EVQLQQSGTVLARPGASVKMSCKASGYTFTGYWMHWVKQRPGQGLEWIGAIYPGNSDTNYNQKFKGKAKLTAVTSASTAYMELSSLTNEDAAVYHCTRSGDLTGGLAYWGQGTLVTVSA
VL: DIVMTQAAFSNPVTLGTSASISCRSSKSLLHSNGITYLYWFLQKPGQSPQLLIYQMSNLASGVPDRFSSSGSGTDFTLRISRVEAEDVGVYYCAQNLELPYTFGSGTKLEIK
notes: Mouse hybridoma antibody
B7: GC199 (antibody, V domains shown)
VH: QIQLEQSGPELKKPGETVKISCKASGYIFRDYSMHWVKQAPGKGLKWMGWINTETGEPTYADDFKGRFAFSLETSASTAYLQINNLKNEDTATYFCTSLYWGQGTLVTVSA
VL: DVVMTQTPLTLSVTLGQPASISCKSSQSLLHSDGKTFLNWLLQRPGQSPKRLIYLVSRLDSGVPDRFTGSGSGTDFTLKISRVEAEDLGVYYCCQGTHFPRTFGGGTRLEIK
notes: Mouse hybridoma antibody from GC-3 immunisation; also called GC199抗体

Columns and labels:
[1] = target: T1, 可溶型GPC3コアタンパク質 (human, UniProt P51654 25-563); assay: ELISA screening on immobilised soluble GPC3 core protein
T1 construct: also called 可溶型GPC3コア蛋白質; soluble GPC3 core protein; not shown: C-terminal His tag

[2] = target: T2, GC-3 (human, UniProt P51654 524-563); assay: Western blot of GST fusion proteins
T2 construct: also called GST融合タンパク質GC-3(Ala524からLys563); not shown: GST (glutathione S-transferase) of vector pGEX-4T-3 (Amersham), N-terminal to the GPC3 piece
T2 chain: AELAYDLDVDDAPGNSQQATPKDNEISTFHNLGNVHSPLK

[3] = target: T3, GC-1 (human, UniProt P51654 495-563); assay: Western blot of GST fusion proteins
T3 construct: Made in E. coli DH5α, purified on glutathione resin; also called GST融合タンパク質GC-1(Ser495からLys563); not shown: GST (glutathione S-transferase) of vector pGEX-4T-3 (Amersham), N-terminal to the GPC3 piece
T3 sequence: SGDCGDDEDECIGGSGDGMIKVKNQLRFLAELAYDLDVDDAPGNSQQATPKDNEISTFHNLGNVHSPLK

[4] = target: T4, GC-2 (human, UniProt P51654 510-563); assay: Western blot of GST fusion proteins
T4 construct: also called GST融合タンパク質GC-2(Gly510からLys563); not shown: GST (glutathione S-transferase) of vector pGEX-4T-3 (Amersham), N-terminal to the GPC3 piece
T4 sequence: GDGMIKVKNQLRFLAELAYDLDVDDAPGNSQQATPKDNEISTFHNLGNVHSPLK

[5] = target: T1, 可溶型GPC3コアタンパク質; assay: ELISA, purified antibody from 10 μg/mL in 3-fold steps on immobilised soluble GPC3 core protein
[6] = target: T2, GC-3; assay: Western blot of GST fusion proteins, reducing SDS-PAGE
[7] = target: T3, GC-1; assay: as above
[8] = target: T4, GC-2; assay: as above
[9] = target: T1, 可溶型GPC3コアタンパク質; assay: ELISA on GPC3 (Fig. 15); reference antibody of the comparison
[10] = target: T1, 可溶型GPC3コアタンパク質; assay: ELISA screening of hybridoma supernatant on immobilised soluble GPC3 core protein

| Binder | binding result [1] | binding result [2] | binding result [3] | binding result [4] | further results |
| --- | --- | --- | --- | --- | --- |
| B1 | binds | binds | binds | binds | – |
| B2 | – | – | – | – | binding result [5]: binds; binding result [6]: binds; binding result [7]: binds; binding result [8]: binds |
| B3 | – | – | – | – | binding result [9]: binds |
| B4 | binds | binds | binds | binds | – |
| B5 | – | – | – | – | binding result [10]: binds |
| B6 | – | – | – | – | binding result [10]: binds |
| B7 | binds | binds | binds | binds | – |
